Results from the supplement of paper PMC7877785.
± gives the uncertainty stated by the source.

Test: self-splicing fitness, log relative to wild type (ln ratio); higher = more splicing; Tetrahymena group I intron in knt gene, E. coli kanamycin selection, DiMSum; sequences stand for … in CUCUCU…GGAGGGAAAAGUUAUCAGGCAUGCACCUGGUAGCUAGUCUUUAAACCAAUAGAUUGCAUCGGUUUAAAAGGCAAGACCGUCAAAUUGCGGGAAAGGGGUCAACAGCCGUUCAGUACCAAGUCUCAGGGGAAACUUUGAGAUGGCCUUGCAAAGGGUAUGGUAAUAAGCUGACGGACAUGGUCCUAACCACGCAGCCAAGUCCUAAGUCAACAGAUCUUCUGUUGAUAUGGAUGCAGUUCACAGACUAAAUGUCGGUCGGGGAAGAUGUAUUCUUCUCAUAAGAUAUAGUCGGACCUCUCCUUAAUGGGAGCUAGCGGAUGAAGUGAUGCAACACUGGAGCCGCUGGGAACUAAUUUGUAUGCGAAAGUAUAUUGAUUAGUUUUGGAGUACUCGUGGUCG
Outline: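 Colonies from six replicate transformations of E. coli BL21(DE3) were pooled and amplicon-sequenced on an Illumina HiSeq 2500. The library placed an intron with all eight P1ex-region nucleotides randomised inside the knt kanamycin-resistance gene on pET-22b(+), and cells grew overnight at 37°C or 30°C on LB agar with or without 25 μg/mL kanamycin (plus 100 μg/mL carbenicillin, 50 μM IPTG, 0.2% rhamnose). Fitness is the DiMSum error-weighted combination of wild-type-normalised replicate fold changes, kanamycin versus none.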

Sequence	self-splicing fitness (ln) (30 °C)	self-splicing fitness (ln) (37 °C)
CCCUAGCAAUAUUACGUGAG	-3.42 ± 0.22	-2.38 ± 0.23
CCCUAGCAAUAUUACGUUGA	-3.23 ± 0.19	-2.83 ± 0.23
CCCUAGCAAUAUUACGUUUA	-2.91 ± 0.14	-2.16 ± 0.16
CCGAAGCAAUAUUACGAAAA	-1.87 ± 0.26	-1.09 ± 0.27
CCGAAGCAAUAUUACGACGA	-1.44 ± 0.12	-0.711 ± 0.13
CCGAAGCAAUAUUACGAGGA	-4.32 ± 0.39	-2.54 ± 0.21
CCGAAGCAAUAUUACGAGGU	-3.79 ± 0.2	-2.9 ± 0.26
CCGAAGCAAUAUUACGAGUG	-0.855 ± 0.049	-0.0149 ± 0.062
CCGAAGCAAUAUUACGAUAA	-2.83 ± 0.12	-2.96 ± 0.25
CCGAAGCAAUAUUACGAUAC	-3.86 ± 0.47	-1.95 ± 0.26
CCGAAGCAAUAUUACGAUGC	-4.36 ± 0.26	-2.34 ± 0.23
CCGAAGCAAUAUUACGAUUC	–	-2.07 ± 0.25
CCGAAGCAAUAUUACGAUUG	-1.16 ± 0.093	-0.0885 ± 0.095
CCGAAGCAAUAUUACGCAGA	-2.91 ± 0.38	-2.57 ± 0.33
CCGAAGCAAUAUUACGCAUG	-1.84 ± 0.11	-0.892 ± 0.12
CCGAAGCAAUAUUACGCCAC	–	-1.9 ± 0.34
CCGAAGCAAUAUUACGCCGU	-2.44 ± 0.27	-1.04 ± 0.36
CCGAAGCAAUAUUACGCCUU	-3.35 ± 0.36	-1.21 ± 0.3
CCGAAGCAAUAUUACGCUGA	-3.08 ± 0.27	-3.41 ± 0.42
CCGAAGCAAUAUUACGGGAA	-2.26 ± 0.25	-1.73 ± 0.32
CCGAAGCAAUAUUACGGGUC	-3.13 ± 0.22	-3.03 ± 0.37
CCGAAGCAAUAUUACGGUCC	-3.68 ± 0.46	-2.26 ± 0.26
CCGAAGCAAUAUUACGGUCU	-2.93 ± 0.17	-3.23 ± 0.25
CCGAAGCAAUAUUACGUGCG	-1.04 ± 0.085	-0.542 ± 0.096
CCGAAGCAAUAUUACGUUUU	-3.83 ± 0.17	-3.26 ± 0.18

Sequence	self-splicing fitness (ln) (30 °C)	self-splicing fitness (ln) (37 °C)
CCGCAGCAAUAUUACGAACC	-1.84 ± 0.39	–
CCGCAGCAAUAUUACGACCG	-0.576 ± 0.074	0.229 ± 0.11
CCGCAGCAAUAUUACGAGAC	-2.24 ± 0.22	–
CCGCAGCAAUAUUACGAUGU	-3.21 ± 0.14	-2.83 ± 0.17
CCGCAGCAAUAUUACGCAAG	-1.41 ± 0.095	-1.18 ± 0.13
CCGCAGCAAUAUUACGCAGA	-2.89 ± 0.2	-2.25 ± 0.17
CCGCAGCAAUAUUACGCAUC	-3.93 ± 0.28	-1.95 ± 0.22
CCGCAGCAAUAUUACGCGAG	-3.17 ± 0.12	-2.2 ± 0.16
CCGCAGCAAUAUUACGCGGG	-4.07 ± 0.14	-3.74 ± 0.12
CCGCAGCAAUAUUACGCUAG	-1.53 ± 0.1	-2.05 ± 0.12
CCGCAGCAAUAUUACGCUUC	-4.17 ± 0.46	–
CCGCAGCAAUAUUACGGACC	-3.45 ± 0.41	–
CCGCAGCAAUAUUACGGAGA	-2.53 ± 0.17	-2.36 ± 0.21
CCGCAGCAAUAUUACGGCAU	-3.29 ± 0.2	-2.38 ± 0.17
CCGCAGCAAUAUUACGGGCG	-2.13 ± 0.11	-1.95 ± 0.12
CCGCAGCAAUAUUACGGGUC	-3.86 ± 0.18	-2.69 ± 0.19
CCGCAGCAAUAUUACGGUGC	-2.98 ± 0.18	-2.63 ± 0.22
CCGCAGCAAUAUUACGUAAU	-3.78 ± 0.15	-2.3 ± 0.19
CCGCAGCAAUAUUACGUACA	-2.89 ± 0.16	-2.4 ± 0.23
CCGCAGCAAUAUUACGUAUA	-3.6 ± 0.16	-3.03 ± 0.19
CCGCAGCAAUAUUACGUCAG	-0.624 ± 0.054	0.0667 ± 0.065
CCGCAGCAAUAUUACGUCGG	-3.9 ± 0.21	-2.28 ± 0.2
CCGCAGCAAUAUUACGUGCG	-4.67 ± 0.22	-2.86 ± 0.15
CCGCAGCAAUAUUACGUGUA	-3.25 ± 0.17	-1.38 ± 0.13
CCGCAGCAAUAUUACGUUCA	-3.89 ± 0.27	-2 ± 0.16

Sequence	self-splicing fitness (ln) (30 °C)	self-splicing fitness (ln) (37 °C)
CCGCAGCAAUAUUACGUUGC	-3.32 ± 0.14	-2.7 ± 0.21
CCGGAGCAAUAUUACGAUUC	–	-2.85 ± 0.38
CCGGAGCAAUAUUACGCCUU	-2.67 ± 0.36	-3.35 ± 0.47
CCGGAGCAAUAUUACGCUAC	-2.55 ± 0.49	–
CCGGAGCAAUAUUACGCUUA	-2.45 ± 0.24	-3.19 ± 0.35
CCGGAGCAAUAUUACGGAGG	–	-2.35 ± 0.25
CCGGAGCAAUAUUACGGGAU	-3.11 ± 0.36	-2.44 ± 0.25
CCGGAGCAAUAUUACGUAUA	-3.21 ± 0.23	-2.49 ± 0.36
CCGGAGCAAUAUUACGUAUG	-1.41 ± 0.071	-0.561 ± 0.083
CCGGAGCAAUAUUACGUCAC	-3.61 ± 0.34	-2.71 ± 0.38
CCGGAGCAAUAUUACGUCCU	-4.9 ± 0.31	-2.29 ± 0.16
CCGGAGCAAUAUUACGUCUG	-1.22 ± 0.14	-0.402 ± 0.16
CCGGAGCAAUAUUACGUUUA	–	-1.99 ± 0.25
CCGUAGCAAUAUUACGAGAG	-3.86 ± 0.29	-2.54 ± 0.24
CCGUAGCAAUAUUACGAUAU	-2 ± 0.19	-3.31 ± 0.43
CCGUAGCAAUAUUACGCCAG	-1.17 ± 0.16	-0.533 ± 0.22
CCGUAGCAAUAUUACGCCUA	-3.02 ± 0.34	-2.11 ± 0.27
CCGUAGCAAUAUUACGCUCU	-2.65 ± 0.37	-2.48 ± 0.39
CCGUAGCAAUAUUACGCUGU	-3.79 ± 0.25	-3.17 ± 0.26
CCGUAGCAAUAUUACGGAAA	-3.22 ± 0.42	-2.52 ± 0.46
CCGUAGCAAUAUUACGGACA	-1.88 ± 0.35	–
CCGUAGCAAUAUUACGGCAU	-3.15 ± 0.23	-2.85 ± 0.25
CCGUAGCAAUAUUACGGCCU	-1.36 ± 0.14	-2.7 ± 0.41
CCGUAGCAAUAUUACGGCGC	-3.01 ± 0.33	-1.48 ± 0.32
CCGUAGCAAUAUUACGGGGA	-3.45 ± 0.25	-3.11 ± 0.25

Sequence	self-splicing fitness (ln) (30 °C)	self-splicing fitness (ln) (37 °C)
CCGUAGCAAUAUUACGGUCG	-0.844 ± 0.074	-0.447 ± 0.095
CCGUAGCAAUAUUACGGUGA	-3.66 ± 0.26	-2.45 ± 0.25
CCGUAGCAAUAUUACGGUGG	-2.59 ± 0.16	-1.1 ± 0.17
CCGUAGCAAUAUUACGUAAG	0.191 ± 0.047	0.106 ± 0.062
CCGUAGCAAUAUUACGUAGG	-3.19 ± 0.17	-1.87 ± 0.19
CCGUAGCAAUAUUACGUCAU	-3.33 ± 0.24	-2.32 ± 0.28
CCGUAGCAAUAUUACGUCGA	-1.93 ± 0.14	-1.57 ± 0.13
CCGUAGCAAUAUUACGUCUG	-0.102 ± 0.054	0.303 ± 0.067
CCGUAGCAAUAUUACGUGAG	-3.11 ± 0.34	-2.51 ± 0.38
CCGUAGCAAUAUUACGUGCG	-2.39 ± 0.11	-1.68 ± 0.12
CCGUAGCAAUAUUACGUGUC	-3.6 ± 0.29	-1.87 ± 0.32
CCGUAGCAAUAUUACGUUAA	-3.18 ± 0.4	-2.67 ± 0.31
CCGUAGCAAUAUUACGUUCG	-0.619 ± 0.066	0.0526 ± 0.095
CCGUAGCAAUAUUACGUUGG	-4.39 ± 0.27	-3.1 ± 0.19
CCGUAGCAAUAUUACGUUUU	-4.21 ± 0.23	-2.87 ± 0.22
CCUAAGCAAUAUUACGAAGG	-3.55 ± 0.16	-2.9 ± 0.2
CCUAAGCAAUAUUACGAAUC	-0.765 ± 0.2	–
CCUAAGCAAUAUUACGACGC	–	-1.59 ± 0.42
CCUAAGCAAUAUUACGACGG	-3.49 ± 0.19	-2.24 ± 0.24
CCUAAGCAAUAUUACGACUA	-2.87 ± 0.4	-1.59 ± 0.33
CCUAAGCAAUAUUACGAGAA	-2.67 ± 0.36	–
CCUAAGCAAUAUUACGAGAU	-3.2 ± 0.27	-3.33 ± 0.31
CCUAAGCAAUAUUACGAGGC	-3.32 ± 0.15	-3.61 ± 0.22
CCUAAGCAAUAUUACGAUAG	-1.12 ± 0.065	-0.285 ± 0.074
